From publication PMC7540478

What was measured:
purified protein [1] = substrate: O=P(O)(O)O[C@H]1O[C@H](CO)[C@@H](O)[C@H](O)[C@H]1O; assay: purified protein; details: 2 M glycerol as acceptor, 50 mM MES pH 7.0, 30 °C
purified protein [2] = substrate: OC[C@H]1O[C@@](CO)(O[C@H]2O[C@H](CO)[C@@H](O)[C@H](O)[C@H]2O)[C@@H](O)[C@@H]1O; assay: purified protein; details: 2 M glycerol as acceptor, 50 mM MES pH 7.0, 30 °C

B1: LmSucP (Leuconostoc mesenteroides) (protein)
chain: MEIQNKAMLITYADSLGKNLKDVHQVLKEDIGDAIGGVHLLPFFPSTGDRGFAPADYTRVDAAFGDWADVEALGEEYYLMFDFMINHISRESVMYQDFKKNHDDSKYKDFFIRWEKFWAKAGENRPTQADVDLIYKRKDKAPTQEITFDDGTTENLWNTFGEEQIDIDVNSAIAKEFIKTTLEDMVKHGANLIRLDAFAYAVKKVDTNDFFVEPEIWDTLNEVREILTPLKAEILPEIHEHYSIPKKINDHGYFTYDFALPMTTLYTLYSGKTNQLAKWLKMSPMKQFTTLDTHDGIGVVDARDILTDDEIDYASEQLYKVGANVKKTYSSASYNNLDIYQINSTYYSALGNDDAAYLLSRVFQVFAPGIPQIYYVGLLAGENDIALLESTKEGRNINRHYYTREEVKSEVKRPVVANLLKLLSWRNESPAFDLAGSITVDTPTDTTIVVTRQDENGQNKAVLTADAANKTFEIVENGQTVMSSDNLTQN
Purified protein [1]
  Km: 12.5 ± 1.7 mM
  kcat: 36 ± 3 s⁻¹
Purified protein [2]
  Km: 1.4 ± 0.1 mM
